Data published in patent US20180194862A1 (AbbVie / Abbott, published 2018).

What was measured:
cynomolgus mesothelin = target: T1, cynomolgus mesothelin (cynomolgus); experiment: SPR
T1 construct: also called cynoMSLN; Cyno MSLN

human mesothelin = target: T2, human mesothelin (human, UniProt Q13421 296-580, limits assumed); experiment: SPR
T2 construct: also called Human MSLN

[1] = target: T3, soluble form of the extracellular domain of human CD40 (Creative BioMart) (human, UniProt P25942 21-193); experiment: SPR, Ab captured
T3 construct: Bought
T3 sequence (P25942 21-193 limits assumed): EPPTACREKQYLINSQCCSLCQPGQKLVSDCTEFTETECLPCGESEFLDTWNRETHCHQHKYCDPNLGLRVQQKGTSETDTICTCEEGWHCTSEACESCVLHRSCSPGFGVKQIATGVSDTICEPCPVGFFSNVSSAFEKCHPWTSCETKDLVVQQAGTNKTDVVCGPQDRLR
Description: CD40 binding kinetics was analyzed by surface plasmon resonance assay with a Biacore T200 instrument (Table 1-5). Briefly, a goat anti-mouse Fc antibody (Pierce) or goat anti-human Fc (Pierce) was immobilized on a CM5 sensor chip, followed by capture of the anti-CD40 antibodies on the test surface. Subsequently, the soluble form of the extracellular domain of human CD40 (Creative BioMart) or cynomolgus (cyno) CD40 (Creative BioMart) was injected, and the binding and dissociation were measured.

[2] = target: human CD40 on cells (HEK293 stable transfectants, HEK-Blue CD40 cells, human B cells, monocytic cells, … (human, UniProt P25942 21-277)); experiment: cell-based or functional assay
Chain of human CD40 on cells (HEK293 stable transfectants, HEK-Blue CD40 cells, human B cells, monocytic cells, … (P25942 21-277 limits assumed): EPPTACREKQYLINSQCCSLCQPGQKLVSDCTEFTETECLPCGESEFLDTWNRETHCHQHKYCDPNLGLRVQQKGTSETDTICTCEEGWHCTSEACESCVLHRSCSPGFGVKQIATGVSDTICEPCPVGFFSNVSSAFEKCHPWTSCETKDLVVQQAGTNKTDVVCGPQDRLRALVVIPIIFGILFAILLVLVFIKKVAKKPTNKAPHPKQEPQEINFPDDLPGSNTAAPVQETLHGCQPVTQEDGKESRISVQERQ

T2 sequence (Q13421 other isoform, or with tags, fused parts or gaps limits assumed): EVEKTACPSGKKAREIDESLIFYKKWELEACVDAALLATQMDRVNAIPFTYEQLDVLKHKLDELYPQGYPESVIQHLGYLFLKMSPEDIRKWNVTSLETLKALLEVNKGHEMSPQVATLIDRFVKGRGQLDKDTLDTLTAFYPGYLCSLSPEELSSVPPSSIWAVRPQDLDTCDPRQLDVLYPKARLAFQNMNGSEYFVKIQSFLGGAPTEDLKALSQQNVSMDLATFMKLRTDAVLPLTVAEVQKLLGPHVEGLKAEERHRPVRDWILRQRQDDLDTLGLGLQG

Binder | Kd (cynomolgus mesothelin) [nM] | koff (cynomolgus mesothelin) [s⁻¹] | kon (cynomolgus mesothelin) [M⁻¹ s⁻¹] | Kd (human mesothelin) [nM] | koff (human mesothelin) [s⁻¹] | kon (human mesothelin) [M⁻¹ s⁻¹] | Kd [1] [nM] | koff [1] [s⁻¹] | kon [1] [M⁻¹ s⁻¹] | Monocyte activation (THP1-Xblue, OD655) [2] [OD655] | moDC activation (IL-12p70) [2] [pg/mL]
HuAM17 (antibody, V domains shown, fully human antibody) VH: EVQLVQSGAEVKKPGASVKVSCKASGDTFNRYYVQWVRQAPGQGLEWMGIINPSGVSTTYAQKFQGRVTMTRDTSTSTVYMELSSLRSEDTAVYYCAESRVPGYNIFAMDVWGQGTLVTVSS VL: SYELTQPPSVSVSPGQTASITCSGDKLGDKYASWYQQKPGQSPVLVIYQDNRRPSGIPERFSGSNSGNTATLTISGTQAMDEADYYCQAWDSDTYVFGTGTKVTVL | 3.4 | 9.1e-05 | 27000 | 0.53 | 1.5e-05 | 29000 |  |  |  |  | 
HuAM7 (antibody, V domains shown, fully human antibody) VH: EVQLVQSGAEVKKPGASVKVSCKASGDTFNRYYVHWVRQAPGQGLEWMGIINPSGVSTTYAQKFQGRVTMTRDTSTSTVYMELSSLRSEDTAVYYCAEVRGSGYNYFGMDVWGQGTLVTVSS VL: SYELTQPPSVSVSPGQTASITCSGDKLGDKYASWYQQKPGQSPVLVIYQDNRRPSGIPERFSGSNSGNTATLTISGTQAMDEADYYCQAWDSDTYVFGTGTKVTVL | 4.9 | 0.00011 | 22000 | ≤ 0.39 | ≤ 1e-05 | 26000 |  |  |  |  | 
HuAM18 (antibody, V domains shown, fully human antibody) VH: EVQLVQSGAEVKKPGASVKVSCKASGDTFNRYYVHWVRQAPGQGLEWMGIINPSGVSTTYAQKFQGRVTMTRDTSTSTVYMELSSLRSEDTAVYYCAETRGSGYNYFGMDVWGQGTLVTVSS VL: SYELTQPPSVSVSPGQTASITCSGDKLGDKYASWYQQKPGQSPVLVIYQDNRRPSGIPERFSGSNSGNTATLTISGTQAMDEADYYCQAWDSDTYVFGTGTKVTVL | 9.3 | 0.00013 | 14000 | ≤ 0.66 | ≤ 1e-05 | 16000 |  |  |  |  | 

Now from value to binder:

Kd (cynomolgus mesothelin) [nM] | koff (cynomolgus mesothelin) [s⁻¹] | kon (cynomolgus mesothelin) [M⁻¹ s⁻¹] | Kd (human mesothelin) [nM] | koff (human mesothelin) [s⁻¹] | kon (human mesothelin) [M⁻¹ s⁻¹] | Kd [1] [nM] | koff [1] [s⁻¹] | kon [1] [M⁻¹ s⁻¹] | Monocyte activation (THP1-Xblue, OD655) [2] [OD655] | moDC activation (IL-12p70) [2] [pg/mL] | Binder
11 | 0.0002 | 18000 | 2.7 | 5.1e-05 | 19000 |  |  |  |  |  | HuAM1 (antibody, V domains shown, fully human antibody) VH: EVQLVQSGAEVKKPGASVKVSCKASGDTFKRYYVQWVRQAPGQGLEWMGIINPSGVSTTYAQKFQGRVTMTRDTSTSTVYMELSSLRSEDTAVYYCAESRGSGYNYFAMDVWGQGTLVTVSS VL: SYELTQPPSVSVSPGQTASITCSGDKLGDKYASWYQQKPGQSPVLVIYQDNRRPSGIPERFSGSNSGNTATLTISGTQAMDEADYYCQAWDSDTYVFGTGTKVTVL
3.9 | 8.5e-05 | 22000 | 1 | 2.4e-05 | 24000 |  |  |  |  |  | HuAM6 (antibody, V domains shown, fully human antibody) VH: EVQLVQSGAEVKKPGASVKVSCKASGDTFNRYYVHWVRQAPGQGLEWMGIINPSGVSTTYAQKFQGRVTMTRDTSTSTVYMELSSLRSEDTAVYYCAESRVPGYNNFAMDVWGQGTLVTVSS VL: SYELTQPPSVSVSPGQTASITCSGDKLGDKYASWYQQKPGQSPVLVIYQDNRRPSGIPERFSGSNSGNTATLTISGTQAMDEADYYCQAWDSDTYVFGTGTKVTVL
 |  |  |  |  |  | 63 | 0.0048 | 76000 | 0.11 | 2160 | AD163.162.1 (antibody, V domains shown, mouse hybridoma antibody; also called muAb6) VH: QVQLQQPGAELVRPGSSVKLSCKASGYTFTSYWMHWVKQRPIQGLEWIGNIDPSNGETHYNQKFKDKATLTVDKSSSTAYMQLSSLTSEDSAVYYCARERIYYSGSTYDGYFDVWGTGTTVTVSS VL: QIVLTQSPAIMSASPGEKVTMTCSASSSLSYMHWYQQKSGTSPKRWIYDTSKLASGVPARFSGSGSGTSYSLTISSMEAEDAATYYCQQWSSNPWTFGGGTKLEIK
 |  |  |  |  |  | 4.1 | 0.0042 | 1e+06 | 0.13 | 905 | AD163.7.2 (antibody, V domains shown, mouse hybridoma antibody; also called muAb8) VH: QVQLQQSGPELVKSGASVKISCKASGYTFTDYYINWVKQRPGQGLEWIGWIFPGSGSVYCNEQFKGQATLTVDRSSSTAYMLLSSLTSEDSAVYFCASSLGKFAYWGQGTLVTVSA VL: DIVMTQSQKFMSTTVGDRVSITCKASQSVVTAVAWYQQKPGQSPKLLIYSASNRYTGVPDRFTGSGSGTDFALTIRTMQSEDLADYFCQQYSSYPYTFGGGTKLEIK
